According to patent US20180057888A1, “KUB5/HERA AS A DETERMINANT OF SENSITIVITY TO DNA DAMAGE” (priority 2015, published 2018):

Biological target: RNA Polymerase II (RNAPII), phospho-Ser2 C-terminal domain (pS2-CTD) (UniProt P24928)
Test: cell-based or functional assay

myc-tagged wild-type Kub5-Hera (K-H), sequence (Q9NQG5 whole entry): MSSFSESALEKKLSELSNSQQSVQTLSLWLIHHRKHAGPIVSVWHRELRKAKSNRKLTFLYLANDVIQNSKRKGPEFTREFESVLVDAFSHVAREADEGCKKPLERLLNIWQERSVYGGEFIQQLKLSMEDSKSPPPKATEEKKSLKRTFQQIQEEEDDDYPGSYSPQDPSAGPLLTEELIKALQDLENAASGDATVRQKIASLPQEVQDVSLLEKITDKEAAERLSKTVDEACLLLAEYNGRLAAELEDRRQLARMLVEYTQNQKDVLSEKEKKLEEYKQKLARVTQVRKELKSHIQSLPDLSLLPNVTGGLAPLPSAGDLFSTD

CDK1 promoter activity (luciferase reporter, 231 cells): 3 fold
Substance: myc-tagged wild-type Kub5-Hera (K-H) (from UniProt Q9NQG5 1-326)
